Assays:
GAPDH-wt = GAPDH-wt (UniProt P04406 1-335); assay: fluorescence anisotropy
GAPDH-K215E = GAPDH-K215E (UniProt P04406 1-335, K215E); assay: fluorescence anisotropy
Chain of GAPDH-K215E (P04406 whole entry K215E): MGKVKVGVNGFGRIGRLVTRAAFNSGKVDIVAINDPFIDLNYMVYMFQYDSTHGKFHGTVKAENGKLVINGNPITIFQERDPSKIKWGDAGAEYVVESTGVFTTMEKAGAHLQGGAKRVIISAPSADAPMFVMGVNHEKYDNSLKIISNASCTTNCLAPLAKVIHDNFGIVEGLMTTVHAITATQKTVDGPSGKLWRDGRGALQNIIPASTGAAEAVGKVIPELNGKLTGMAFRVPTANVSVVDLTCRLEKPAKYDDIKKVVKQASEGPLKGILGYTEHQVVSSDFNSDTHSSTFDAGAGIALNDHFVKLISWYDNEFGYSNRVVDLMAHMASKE

Chain of GAPDH-wt (P04406 whole entry): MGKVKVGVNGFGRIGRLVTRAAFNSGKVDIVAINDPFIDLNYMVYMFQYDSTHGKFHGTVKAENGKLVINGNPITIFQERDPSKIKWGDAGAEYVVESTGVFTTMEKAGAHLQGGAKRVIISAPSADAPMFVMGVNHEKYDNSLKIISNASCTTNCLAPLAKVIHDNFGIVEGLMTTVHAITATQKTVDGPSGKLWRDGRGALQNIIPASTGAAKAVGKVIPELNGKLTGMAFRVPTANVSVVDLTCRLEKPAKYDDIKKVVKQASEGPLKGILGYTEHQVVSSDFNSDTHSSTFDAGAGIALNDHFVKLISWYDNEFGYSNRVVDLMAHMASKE

Work on AAAAAAAAAAAAAAAAAAAA (ssRNA) [20A-RNA] yielded a Kd (GAPDH-wt) of 132 ± 10 nM and a Kd (GAPDH-K215E) of 3100 ± 217 nM.
